Results taken from patent US20230416326A1 (LETO LABORATORIES, published 2023).

T1: IL2Rα-his (UniProt P01589 22-240, limits assumed)
T1 construct: Made in-house; also called interleukin-2 receptor alpha; CD25; not shown: his tag
T1 sequence (looked up): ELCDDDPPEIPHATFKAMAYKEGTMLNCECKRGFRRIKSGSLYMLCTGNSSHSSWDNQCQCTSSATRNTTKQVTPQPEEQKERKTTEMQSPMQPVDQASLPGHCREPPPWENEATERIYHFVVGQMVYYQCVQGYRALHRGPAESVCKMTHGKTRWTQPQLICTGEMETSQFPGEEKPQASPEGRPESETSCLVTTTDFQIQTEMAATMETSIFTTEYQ

T2: IL-2/15R β and γ on Mo7e cells (UniProt P14784 27-551; P31785 23-369, limits assumed)
T2 sequence (looked up) 1: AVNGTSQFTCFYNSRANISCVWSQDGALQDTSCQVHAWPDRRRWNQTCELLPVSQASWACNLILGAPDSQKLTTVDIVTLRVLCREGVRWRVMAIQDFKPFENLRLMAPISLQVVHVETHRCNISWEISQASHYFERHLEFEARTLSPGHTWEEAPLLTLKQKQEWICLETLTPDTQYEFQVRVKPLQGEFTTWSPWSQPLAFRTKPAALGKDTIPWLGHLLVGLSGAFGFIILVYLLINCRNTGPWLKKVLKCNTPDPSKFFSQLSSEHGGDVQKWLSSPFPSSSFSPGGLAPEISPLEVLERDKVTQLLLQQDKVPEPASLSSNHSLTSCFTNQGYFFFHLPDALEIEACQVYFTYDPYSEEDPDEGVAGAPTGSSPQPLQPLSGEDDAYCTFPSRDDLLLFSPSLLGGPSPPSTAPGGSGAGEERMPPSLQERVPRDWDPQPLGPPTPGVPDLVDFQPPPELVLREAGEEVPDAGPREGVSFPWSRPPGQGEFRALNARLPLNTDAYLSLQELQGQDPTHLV
T2 sequence (looked up) 2: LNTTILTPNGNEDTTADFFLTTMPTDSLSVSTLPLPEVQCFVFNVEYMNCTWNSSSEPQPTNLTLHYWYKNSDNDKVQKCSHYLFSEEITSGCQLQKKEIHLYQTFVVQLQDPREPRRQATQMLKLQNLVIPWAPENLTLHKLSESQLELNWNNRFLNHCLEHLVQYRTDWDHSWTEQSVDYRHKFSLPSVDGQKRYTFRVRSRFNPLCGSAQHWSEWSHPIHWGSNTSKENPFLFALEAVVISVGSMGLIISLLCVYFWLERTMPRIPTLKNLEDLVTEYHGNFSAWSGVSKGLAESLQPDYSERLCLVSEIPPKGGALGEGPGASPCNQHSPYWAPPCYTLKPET


How the values were obtained:
IL2Rα-his = target: T1, IL2Rα-his; experiment: BLI (Octet RED96), receptor immobilised on sensor
Method: (§1) BLI was used to determine the affinity of a target protein for a receptor by a method with reference to (Estep, P et al., High throughput solution Based measurement of antibody-antigen affinity and epitope binning. MAbs, 2013.5 (2): p. 270-8). The receptor proteins IL-15Rα-his, IL2Rα-his, and IL2/15Rβ-Fc/Fc used in the experiment were each produced by the company of the present application, and both an IL-2 derivative without IL2Rα binding and an IL-2 complex without IL2Rα binding were prepared according to the description in Patent Publication CN111018961A. An IL-15(N72D)/Sushi-hIgG1Fc complex was prepared according to the literature (K.-p. Han et al./Cytokine 56 (2011) 804-810). A buffer was prepared according to the following formula: 10 mM HEPES, 150 mM NaCl, 3 mM EDTA, 0.1% BSA, and 0.05% tween20. Receptor proteins were each pre-immobilized in advance on a corresponding sensor. Then the steps of baseline, loading, baseline, association, and dissociation were conducted according to the established method (see Estep, P et al., High throughput solution Based measurement of antibody-antigen affinity and epitope binning. MAbs, 2013. 5 (2): p. 270-8). Data acquisition and analysis were conducted using the Fortebio Octet RED96 software Data acquisition 11.0 and Data analysis 11.0, respectively. Results are shown in Table 1 (the smaller the value, the stronger the affinity).

IL2/15Rβ-Fc/Fc = target: T3, IL2/15Rβ-Fc/Fc (UniProt P14784 27-240); experiment: BLI (Octet RED96), receptor immobilised on sensor
T3 construct: Made in-house; The label 'Fc/Fc' is not explained; it is read here as one receptor-Fc chain paired with an Fc-only chain; also called IL2Rβ; CD122; not shown: Fc; second Fc chain implied by the label 'Fc/Fc'
Method: as §1

IL-15Rα-his = target: T4, IL-15Rα-his (Homo sapiens (Human), UniProt Q13261 31-205, limits assumed); experiment: BLI (Octet RED96), receptor immobilised on sensor
T4 construct: also called interleukin-15 receptor alpha; not shown: his tag
Method: as §1

[1] = target: T2, IL-2/15R β and γ on Mo7e cells; experiment: cell-based or functional assay
Sushi-hIgG4Fc = target: T5, Sushi-hIgG4Fc; experiment: co-expression in HEK293, purification, SEC-HPLC
T5 construct: IL15Rα Sushi domain fused to human IgG4 Fc; also called Sushi-Fc
Method: The IL-2/15 chimera 1 was co-expressed with each of the Sushi-hIgG1Fc, Sushi-hIgG4Fc, and Sushi-mlgg2aa.1Fc, and heterodimer complexes could be generated during expression, which were respectively named as complex 1, complex 2, and complex 3 and all carried an Fc tag. Mabselect sure (Protein A, GE healthcare) was used for affinity purification, and a purification method was in accordance with instructions of a purification packing. Then further purification was conducted by gel filtration chromatography (GFC) (Superdex200 […], GE Healthcare) to obtain a protein with high purity, and the aggregate was removed. The purity analysis was conducted using a high-performance liquid chromatography (HPLC) molecular sieve column (SEC-HPLC), and the results are shown in FIGS. 1A-1C.

binding result (IL2Rα-his) | Kd (IL2/15Rβ-Fc/Fc) | binding result (IL-15Rα-his) | EC50 (nM), promotion of Mo7e cell proliferation [1] | Kd (IL-15Rα-his) | binding result (Sushi-hIgG4Fc) | Binder
no binding (tested: 100 nM) | 0.512 nM | no binding (tested: 100 nM) | 0.319 nM | – | – | Complex 3 (heterodimer complex of IL-2/15 chimera 1 and Sushi-mIgG2aa.1Fc) (Fc fusion, also called IL-2/15 chimera 1-Sushi-Fc) chain 1: APTSSSTKKTQLQLEHLLLDLQMILNGIQSMHIDATLYTESDVHPSCKVTAMKCFLLELQVISLESGDASIHDTVENLIILANNSLSSNGNVTESGCKECEELEEKNIVEFLNRFITFAQSIISTLT chain 2: ITCPPPMSVEHADIWVKSYSLYSRERYICNSGFKRKAGTSSLTECVLNKATNVAHWTTPSLKCIREPRGPTIKPCPPCKCPAPNAEGAPSVFIFPPKIKDVLMISLSPIVTCVVVDVSEDDPDVQISWFVNNVEVHTAQTQTHREDYNSTLRVVSALPIQHQDWMSGKEFKCKVNNKQLPSSIERTISKPKGSVRAPQVYVLPPPEEEMTKKQVTLTCMVTDFMPEDIYVEWTNNGKTELNYKNTEPVLDSDGSYFMYSKLRVEKKNWVERNSYSCSVVHEGLHNHHTTKSFSRTPGK
no binding (tested: 100 nM) | 973 nM | – | 2.25 nM | 3.89 nM | – | IL-2/15 chimera 1 (ligand, also called modified IL-2 molecule) APTSSSTKKTQLQLEHLLLDLQMILNGIQSMHIDATLYTESDVHPSCKVTAMKCFLLELQVISLESGDASIHDTVENLIILANNSLSSNGNVTESGCKECEELEEKNIVEFLNRFITFAQSIISTLT
– | – | – | – | – | binds | IL-2/15 chimera 2 (ligand, Chimera 1 with F at position 115 mutated back to W; position 115 corresponds to position 121 of natural IL-2) APTSSSTKKTQLQLEHLLLDLQMILNGIQSMHIDATLYTESDVHPSCKVTAMKCFLLELQVISLESGDASIHDTVENLIILANNSLSSNGNVTESGCKECEELEEKNIVEFLNRWITFAQSIISTLT
